Data as given in article doi:10.1101/2022.10.14.512051 (bioRxiv, 2022).
One block for each binder: values may come before it.

Assays:
His-DDB1 (recombinant) = His-DDB1 (recombinant) (human, UniProt Q16531 1-1140); assay: fluorescence polarisation
[1] = target: CRL4A complex (CUL4A, DDB1, RBX1) (human | , UniProt Q13619 1-759; Q16531 1-1140; P62877 1-108); assay: fluorescence polarisation
CRL4A complex (CUL4A, DDB1, RBX1), sequence (Q13619 whole entry, chain 1 of 3): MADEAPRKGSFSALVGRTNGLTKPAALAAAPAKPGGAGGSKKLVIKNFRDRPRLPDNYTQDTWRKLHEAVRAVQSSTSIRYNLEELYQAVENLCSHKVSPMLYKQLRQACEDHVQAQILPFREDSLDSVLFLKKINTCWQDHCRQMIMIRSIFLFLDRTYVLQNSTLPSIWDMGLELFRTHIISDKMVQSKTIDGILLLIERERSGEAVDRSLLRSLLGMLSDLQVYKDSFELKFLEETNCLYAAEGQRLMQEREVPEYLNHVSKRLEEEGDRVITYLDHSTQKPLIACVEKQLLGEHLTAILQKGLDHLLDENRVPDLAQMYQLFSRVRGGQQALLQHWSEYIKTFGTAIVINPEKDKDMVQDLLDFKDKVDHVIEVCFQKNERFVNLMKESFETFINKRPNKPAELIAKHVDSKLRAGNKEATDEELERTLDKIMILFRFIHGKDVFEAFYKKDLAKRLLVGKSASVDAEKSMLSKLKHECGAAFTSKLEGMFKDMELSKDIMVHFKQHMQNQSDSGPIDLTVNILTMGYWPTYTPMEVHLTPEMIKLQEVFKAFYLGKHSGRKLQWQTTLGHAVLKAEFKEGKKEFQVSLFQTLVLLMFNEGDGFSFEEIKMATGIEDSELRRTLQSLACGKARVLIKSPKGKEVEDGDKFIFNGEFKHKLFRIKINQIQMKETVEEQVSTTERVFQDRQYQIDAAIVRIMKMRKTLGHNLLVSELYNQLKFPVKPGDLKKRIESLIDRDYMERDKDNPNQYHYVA
CRL4A complex (CUL4A, DDB1, RBX1), sequence (Q16531 whole entry, chain 2 of 3): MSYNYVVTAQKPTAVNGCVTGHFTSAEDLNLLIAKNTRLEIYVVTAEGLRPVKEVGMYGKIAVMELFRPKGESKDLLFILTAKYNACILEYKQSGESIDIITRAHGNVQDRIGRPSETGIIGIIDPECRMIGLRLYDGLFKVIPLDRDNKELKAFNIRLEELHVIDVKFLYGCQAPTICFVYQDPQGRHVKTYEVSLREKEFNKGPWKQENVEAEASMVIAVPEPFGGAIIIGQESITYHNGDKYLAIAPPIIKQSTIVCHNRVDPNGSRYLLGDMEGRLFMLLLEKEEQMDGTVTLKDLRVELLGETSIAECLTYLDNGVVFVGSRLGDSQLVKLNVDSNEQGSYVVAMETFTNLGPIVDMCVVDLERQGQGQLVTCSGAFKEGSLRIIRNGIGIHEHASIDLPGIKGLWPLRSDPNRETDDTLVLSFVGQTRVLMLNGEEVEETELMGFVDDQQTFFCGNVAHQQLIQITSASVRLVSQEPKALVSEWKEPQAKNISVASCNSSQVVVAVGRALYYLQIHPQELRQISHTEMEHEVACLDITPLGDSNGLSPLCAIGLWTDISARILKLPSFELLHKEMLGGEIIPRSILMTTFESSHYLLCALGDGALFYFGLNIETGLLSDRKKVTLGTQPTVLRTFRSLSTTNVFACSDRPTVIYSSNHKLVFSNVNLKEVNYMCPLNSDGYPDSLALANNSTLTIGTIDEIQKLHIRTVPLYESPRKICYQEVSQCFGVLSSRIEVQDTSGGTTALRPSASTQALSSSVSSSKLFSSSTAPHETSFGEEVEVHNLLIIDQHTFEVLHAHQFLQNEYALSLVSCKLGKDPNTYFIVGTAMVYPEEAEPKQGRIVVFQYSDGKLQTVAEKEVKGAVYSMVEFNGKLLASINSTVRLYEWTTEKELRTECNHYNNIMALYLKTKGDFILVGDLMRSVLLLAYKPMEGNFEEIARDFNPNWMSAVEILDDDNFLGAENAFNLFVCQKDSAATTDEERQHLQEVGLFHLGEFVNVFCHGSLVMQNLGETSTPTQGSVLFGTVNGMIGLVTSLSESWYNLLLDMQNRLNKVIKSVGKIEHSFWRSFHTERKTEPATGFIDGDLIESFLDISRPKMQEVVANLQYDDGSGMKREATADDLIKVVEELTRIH
CRL4A complex (CUL4A, DDB1, RBX1), sequence (P62877 whole entry, chain 3 of 3): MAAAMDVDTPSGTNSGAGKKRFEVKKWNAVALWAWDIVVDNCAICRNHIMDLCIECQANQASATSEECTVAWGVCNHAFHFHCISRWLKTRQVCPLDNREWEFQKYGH

His-DDB1 (recombinant), sequence (Q16531 whole entry): as the sequence (Q16531 whole entry, chain 2 of 3) above

Kd (His-DDB1 (recombinant)): ~5 µM | Kd [1]: ~13 µM
B1: Alexa-labeled LIS1 (biotinylated StrepII-Avi-LIS1 with Alexa488-coupled streptavidin) (natural protein, human, UniProt P43034 1-410, looked up)
chain: MVLSQRQRDELNRAIADYLRSNGYEEAYSVFKKEAELDVNEELDKKYAGLLEKKWTSVIRLQKKVMELESKLNEAKEEFTSGGPLGQKRDPKEWIPRPPEKYALSGHRSPVTRVIFHPVFSVMVSASEDATIKVWDYETGDFERTLKGHTDSVQDISFDHSGKLLASCSADMTIKLWDFQGFECIRTMHGHDHNVSSVAIMPNGDHIVSASRDKTIKMWEVQTGYCVKTFTGHREWVRMVRPNQDGTLIASCSNDQTVRVWVVATKECKAELREHEHVVECISWAPESSYSSISEATGSETKKSGKPGPFLLSGSRDKTIKMWDVSTGMCLMTLVGHDNWVRGVLFHSGGKFILSCADDKTLRVWDYKNKRCMKTLNAHEHFVTSLDFHKTAPYVVTGSVDQTVKVWECR
modifications: biotin on the Avi tag

Kd (His-DDB1 (recombinant)): ~5 µM | Kd [1]: ~13 µM
B2: Alexa-labeled WDR1 (biotinylated StrepII-Avi-WDR1 with Alexa488-coupled streptavidin) (natural protein, human, UniProt O75083 1-606, looked up)
chain: MPYEIKKVFASLPQVERGVSKIIGGDPKGNNFLYTNGKCVILRNIDNPALADIYTEHAHQVVVAKYAPSGFYIASGDVSGKLRIWDTTQKEHLLKYEYQPFAGKIKDIAWTEDSKRIAVVGEGREKFGAVFLWDSGSSVGEITGHNKVINSVDIKQSRPYRLATGSDDNCAAFFEGPPFKFKFTIGDHSRFVNCVRFSPDGNRFATASADGQIYIYDGKTGEKVCALGGSKAHDGGIYAISWSPDSTHLLSASGDKTSKIWDVSVNSVVSTFPMGSTVLDQQLGCLWQKDHLLSVSLSGYINYLDRNNPSKPLHVIKGHSKSIQCLTVHKNGGKSYIYSGSHDGHINYWDSETGENDSFAGKGHTNQVSRMTVDESGQLISCSMDDTVRYTSLMLRDYSGQGVVKLDVQPKCVAVGPGGYAVVVCIGQIVLLKDQRKCFSIDNPGYEPEVVAVHPGGDTVAIGGVDGNVRLYSILGTTLKDEGKLLEAKGPVTDVAYSHDGAFLAVCDASKVVTVFSVADGYSENNVFYGHHAKIVCLAWSPDNEHFASGGMDMMVYVWTLSDPETRVKIQDAHRLHHVSSLAWLDEHTLVTTSHDASVKEWTITY
modifications: biotin on the Avi tag
